Results reported in patent US20260209363A1 (Chugai, published 2026).
Values belong to the binder of their own block, whether it stands above or below them.

Tests used:
mouse albumin = target: T1, mouse albumin (mouse, UniProt P07724 25-608); experiment: SPR (Biacore T200), antibody captured by anti-human Fc antibody, mouse albumin as analyte, 25 degrees C
T1 construct: also called recombinant mouse Albumin; mouse serum albumin
Experimental: Binding activities of the produced antibodies against mouse albumin were evaluated using Biacore T200 (Cytiva).
As the running buffer, 50 mM Na Phosphate (pH 7.4), 150 mM NaCl, 0.05% Tween20 was used, and the evaluation was performed at 25 degrees C. First, anti-human Fc antibody (Cytiva) was used as a ligand-capturing molecule. Anti-human Fc antibody (Cytiva) was solid-phased on a Series S Sensor Chip CM4 (Cytiva) using an Amine Coupling Kit (Cytiva). Antibody solution prepared using the running buffer was allowed to interact with this CM4 sensor chip to capture approximately 120 RU of the antibody. Mouse albumin (Bioscience) was diluted to 0 and 300 nM with the running buffer and allowed to bind to the captured antibody. The chip was regenerated using 3 M MgCl₂, and measurements were performed by repeatedly capturing the antibodies. Dissociation constant (KD) of each antibody for mouse albumin was calculated using Biacore T200 Evaluation Software 2.0. Specifically, the association rate constant ka (L/mol/s) and the dissociation rate constant kd (1/s) were calculated by global fitting of the sensorgrams obtained by measurement with the 1:1 Langmuir binding model, and the dissociation constant KD (mol/L) was calculated from these values.

human soluble IL-6R [1] = target: T2, human soluble IL-6R (human, UniProt P08887 20-357, limits assumed); experiment: in vivo KD in mouse plasma (albumin present), from total antibody, free and bound sIL6R 5 min after sIL6R; antibody 1 mg/kg IV
T2 construct: Soluble form; also called sIL6R; Human IL-6R
T2 sequence (looked up): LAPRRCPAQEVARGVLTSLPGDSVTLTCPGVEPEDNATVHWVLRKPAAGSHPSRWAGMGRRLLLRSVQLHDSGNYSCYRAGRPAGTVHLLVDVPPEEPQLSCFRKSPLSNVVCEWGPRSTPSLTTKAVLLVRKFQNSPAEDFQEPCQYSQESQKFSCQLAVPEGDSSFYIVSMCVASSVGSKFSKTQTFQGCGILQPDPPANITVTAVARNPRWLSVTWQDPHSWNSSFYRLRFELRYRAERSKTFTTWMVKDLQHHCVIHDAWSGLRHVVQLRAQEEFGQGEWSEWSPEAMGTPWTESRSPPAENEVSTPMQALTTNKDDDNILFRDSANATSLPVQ
Experimental: (§1) Next, free sIL6R in plasma was measured. The concentration of free sIL6R in plasma was measured on a fully automated ELISA system (Gyrolab xP workstation). First, sIL6R prepared at 23.4, 46.9, 93.8, 188, 375, 750, and 1500 ng/mL using a Protein-Free (PBS) Blocking Buffer (Thermo Scientific) was used as solutions for preparing the calibration curve. Mouse plasma samples were used in the measurements without diluting them. A solution of biotin-labeled H54 diluted to 10 micro g/mL using a Protein-Free (PBS) Blocking Buffer was used as a solution of the sIL6R-capturing molecule. Alexa Fluor (registered trademark) 647-labeled anti-human IL-6R antibody (R&D Systems) diluted to 1 micro g/mL using a Protein-Free (PBS) Blocking Buffer was used as a solution of the human IL-6R-detection molecule. PBS (pH 7.4) containing 0.05% TWEEN was used as a washing solution. The calibration curve solutions, mouse plasma samples, sIL6R-capturing molecule solution, sIL6R-detection molecule solution, and the washing solution were placed onto a PCR plate, and then the PCR plate was sealed with a plate sealer. After the PCR plate and the Bioaffy 200 disc were placed in the Gyrolab xP workstation, measurements were taken. Using the data processed by the Gyros Evaluater 3.6.2.30 software and the calibration curve concentrations, the concentration of free sIL6R in plasma was calculated by logistic regression using the XLfit 5.5.0.5 software.
Additionally, bound sIL6R in plasma was measured. The concentration of bound sIL6R in plasma was measured on an electrospray ionization mass spectrometer connected to a high-performance liquid chromatography (LC/ESI-MS/MS). First, H54//IC17 and sIL6R were mixed, and solutions for preparing the calibration curve of bound sIL6R were prepared at theoretical plasma concentrations of 0.0468, 0.467, 4.60, and 20.1 nmol/mL. The solutions for preparing the calibration curve and 1 or 2 micro L of a plasma sample were added to 75 or 150 micro g of magnetic beads (Magnosphere MS300/Carboxyl, JSR) to which anti-delta GK antibodies were solid-phased, and this was shaken at 25 degrees C. for one hour.

human soluble IL-6R [2] = target: T2, human soluble IL-6R; experiment: SPR (Biacore T200), antibody captured on Protein G, human IL-6R as analyte, 37 degrees C, no albumin
Experimental: Binding activities of the produced albumin switch molecules against human IL-6R were evaluated using Biacore T200 (Cytiva). As the running buffer, 50 mM Na Phosphate (pH 7.4), 150 mM NaCl, 0.05% Tween20 was used, and the evaluation was performed at 37 degrees C. First, Protein G (CALBIOCHEM) was used as a ligand-capturing molecule. Protein G (CALBIOCHEM) was solid-phased on a Series S Sensor Chip CM4 (Cytiva) using an Amine Coupling Kit (Cytiva). Antibody solution prepared using the running buffer was allowed to interact with this CM4 sensor chip to capture approximately 200 RU of the antibody. Human IL-6R used in the present measurement was prepared by an approach described in WO2018097307 (Example 3-2). Human IL-6R was diluted to 0, 100, and 400 nM with the running buffer, and allowed to bind to the captured antibody. The chip was regenerated using 3 M MgCl₂, and measurements were performed by repeatedly capturing the antibodies. Dissociation constant (KD) of each antibody for human IL-6R was calculated using Biacore T200 Evaluation Software 2.0. Specifically, the association rate constant ka (L/mol/s) and the dissociation rate constant kd (1/s) were calculated by global fitting of the sensorgrams obtained by measurement with the 1:1 Langmuir binding model, and the dissociation constant KD (mol/L) was calculated from these values.

human soluble IL-6R [3] = target: T2, human soluble IL-6R; experiment: in vivo KD in mouse plasma (albumin present), from total antibody, free and bound sIL6R 5 min after sIL6R; antibody 0.2 mg/kg IV
Experimental: as §1
Additionally, bound sIL6R in plasma was measured. The concentration of bound sIL6R in plasma was measured on an electrospray ionization mass spectrometer connected to a high-performance liquid chromatography (LC/ESI-MS/MS). First, H54//IC17 and sIL6R were mixed, and solutions for preparing the calibration curve of bound sIL6R were prepared at theoretical plasma concentrations of 0.0468, 0.467, 4.60, and 20.1 nmol/mL. […]

human soluble IL-6R [4] = target: T2, human soluble IL-6R; experiment: Gyrolab xP immunoassay of antibody-antigen complex in C57BL/6J mouse plasma (albumin present), 1 nM antibody, 4 nM antigen

Kd (mouse albumin): 11.6 nM
koff (mouse albumin): 0.00131 s⁻¹
kon (mouse albumin): 113000 M⁻¹ s⁻¹
Kd (human soluble IL-6R [1]): 57.3 nM
Kd (human soluble IL-6R [2]): 2.65 nM
koff (human soluble IL-6R [2]): 0.00118 s⁻¹
kon (human soluble IL-6R [2]): 445000 M⁻¹ s⁻¹
Kd (human soluble IL-6R [3]): 49.1 nM
B1: ABD094(L)-H54//IC17 (bispecific antibody, human IgG1, kappa)
heavy 1: QVQLQESGPGLVKPSETLSLTCAVSGYSISDDQAWSWVRQPPGEGLEWIGYISYSGITNYNPSLKGRVTISRDTSKNQFSLKLSSVTAADTAAYYCARSLARTTAMDYWGEGTLVTVSSASTKGPSVFPLAPSSKSTSGGTAALGCLVEDYFPEPVTVSWNSGALTSGVHTFPAVLQSSGLYSLSSVVTVPSSSLGTQTYICNVNHKPSNTKVDERVEPKSCDKTHTCPPCPAPELRRGPSVFLFPPKPKDTLMISRTPEVTCVVVDVSHEDPEVKFNWYVDGVEVHNAKTKPREEQYNSTYRVVSVLTVLHQDWLNGKEYKCKVSNKALPAPIEKTISKAKGQPREPQVCTLPPSREEMTKNQVSLSCAVKGFYPSDIAVEWESNGQPENNYKTTPPVLDSDGSFFLVSKLTVDKSRWQQGNVFSCSVMHEALHNHYTQKSLSLSP
light 1: LAEAKEAANAELDSYGVSDFYKRLIDKAKTVEGVEALKDAILAALPDIQMTQSPSSLSASVGDSVTITCQASQDISSYLNWYQQKPGKAPELLIYYGSELHSGVPSRFSGSGSGTDFTFTISSLEAEDAATYYCQQGNSLPYTFGQGTKVEIERTVAAPSVFIFPPSDRKLKSGTASVVCLLNNFYPREAKVQWKVDNALQSGNSQESVTEQDSKDSTYSLSSTLTLSKADYEKHKVYACEVTHQGLSSPVTKSFNRGEC
heavy 2: not shown
light 2: QVQLQQSGPQLVRPGASVKISCKASGYSFTSYWMHWVNQRPGQGLEWIGMIDPSYSETRLNQKFKDKATLTVDKSSSTAYMQLSSPTSEDSAVYYCALYGNYFDYWGQGTTLTVSSASVAAPSVFIFPPSDEQLKSGTASVVCLLNNFYPREAKVQWKVDNALQSGNSQESVTEQDSKDSTYSLSSTLTLSKADYEKHKVYACEVTHQGLSSPVTKSFNRGEC

decrease in the signal derived from the complex, compared to H54//IC17 (human soluble IL-6R [4]): 55%
B2: ABD094(H/L).N02-H54//IC17 (bispecific antibody, human IgG1, kappa)
heavy 1: LAEAKEAANAELDSYGVSDFYKRLIDKAKTVEGVEALKDAILAALPGGGGSQVQLQESGPGLVKPSETLSLTCAVSGYSISDDQAWSWVRQPPGEGLEWIGYISYSGITNYNPSLKGRVTISRDTSKNQFSLKLSSVTAADTAAYYCARSLARTTAMDYWGEGTLVTVSSASTKGPSVFPLAPSSKSTSGGTAALGCLVEDYFPEPVTVSWNSGALTSGVHTFPAVLQSSGLYSLSSVVTVPSSSLGTQTYICNVNHKPSNTKVDERVEPKSCDKTHTCPPCPAPELRRGPSVFLFPPKPKDTLMISRTPEVTCVVVDVSHEDPEVKFNWYVDGVEVHNAKTKPREEQYNSTYRVVSVLTVLHQDWLNGKEYKCKVSNKALPAPIEKTISKAKGQPREPQVCTLPPSREEMTKNQVSLSCAVKGFYPSDIAVEWESNGQPENNYKTTPPVLDSDGSFFLVSKLTVDKSRWQQGNVFSCSVMHEALHNHYTQKSLSLSP
light 1: LAEAKEAANAELDSYGVSDFYKRLIDKAKTVEGVEALKDAILAALPGGGGSDIQMTQSPSSLSASVGDSVTITCQASQDISSYLNWYQQKPGKAPELLIYYGSELHSGVPSRFSGSGSGTDFTFTISSLEAEDAATYYCQQGNSLPYTFGQGTKVEIERTVAAPSVFIFPPSDRKLKSGTASVVCLLNNFYPREAKVQWKVDNALQSGNSQESVTEQDSKDSTYSLSSTLTLSKADYEKHKVYACEVTHQGLSSPVTKSFNRGEC
heavy 2: not shown
light 2: B1 light 2

decrease in the signal derived from the complex, compared to H54//IC17 (human soluble IL-6R [4]): 95%
B3: ABD094(H/L).N10-H54//IC17 (bispecific antibody, human IgG1, kappa)
heavy 1: LAEAKEAANAELDSYGVSDFYKRLIDKAKTVEGVEALKDAILAALPGQVQLQESGPGLVKPSETLSLTCAVSGYSISDDQAWSWVRQPPGEGLEWIGYISYSGITNYNPSLKGRVTISRDTSKNQFSLKLSSVTAADTAAYYCARSLARTTAMDYWGEGTLVTVSSASTKGPSVFPLAPSSKSTSGGTAALGCLVEDYFPEPVTVSWNSGALTSGVHTFPAVLQSSGLYSLSSVVTVPSSSLGTQTYICNVNHKPSNTKVDERVEPKSCDKTHTCPPCPAPELRRGPSVFLFPPKPKDTLMISRTPEVTCVVVDVSHEDPEVKFNWYVDGVEVHNAKTKPREEQYNSTYRVVSVLTVLHQDWLNGKEYKCKVSNKALPAPIEKTISKAKGQPREPQVCTLPPSREEMTKNQVSLSCAVKGFYPSDIAVEWESNGQPENNYKTTPPVLDSDGSFFLVSKLTVDKSRWQQGNVFSCSVMHEALHNHYTQKSLSLSP
light 1: LAEAKEAANAELDSYGVSDFYKRLIDKAKTVEGVEALKDAILAALPGDIQMTQSPSSLSASVGDSVTITCQASQDISSYLNWYQQKPGKAPELLIYYGSELHSGVPSRFSGSGSGTDFTFTISSLEAEDAATYYCQQGNSLPYTFGQGTKVEIERTVAAPSVFIFPPSDRKLKSGTASVVCLLNNFYPREAKVQWKVDNALQSGNSQESVTEQDSKDSTYSLSSTLTLSKADYEKHKVYACEVTHQGLSSPVTKSFNRGEC
heavy 2: not shown
light 2: B1 light 2
notes: ABD094 linked via N10 linker (G) at VH and VL N-termini of the IL-6R arm; also called ABD094(H/L).NTO-H54//IC17; ABD094(H/L).NO-H54//IC17
